B1: IL-22: medium additive from Peprotech (protein, UniProt Q9GZX6 34-179, looked up)
Interleukin-22: APISSHCRLDKSNFQQPYITNRTFMLAKEASLADNNTDVRLIGEKLFHGVSMSERCYLMKQVLNFTLEEVLFPQSDRFQPYMQEVVPFLARLSNRLSTCHIEGDDLHIQRNVQKLKDTVKKLGESGEIKAIGELDLLFMSLRNACI
B2: R-spondin1: medium additive, R-spondin family protein from R&D (protein, UniProt Q2MKA7 21-263, looked up)
R-spondin-1: SRGIKGKRQRRISAEGSQACAKGCELCSEVNGCLKCSPKLFILLERNDIRQVGVCLPSCPPGYFDARNPDMNKCIKCKIEHCEACFSHNFCTKCKEGLYLHKGRCYPACPEGSSAANGTMECSSPAQCEMSEWSPWGPCSKKQQLCGFRRGSEERTRRVLHAPVGDHAACSDTKETRRCTVRRVPCPEGQKRRKGGQGRRENANRNLARKESKEAGAGSRRRKGQQQQQQQGTVGPLTSAGPA
B3: FGF10: medium additive from sino biological (protein, UniProt O15520 38-208, looked up)
Fibroblast growth factor 10: QALGQDMVSPEATNSSSSSFSSPSSAGRHVRSYNHLQGDVRWRKLFSFTKYFLKIEKNGKVSGTKKENCPYSILEITSVEIGVVAVKAINSNYYLAMNKKGKLYGSKEFNNDCKLKERIEENGYNTYASFNWQHNGRQMYVALNGKGAPRRGQKTRRKNTSAHFLPMVVHS
B4: Noggin: medium additive from R&D (protein, UniProt Q13253 28-232, looked up)
Noggin: QHYLHIRPAPSDNLPLVDLIEHPDPIFDPKEKDLNETLLRSLLGGHYDPGFMATSPPEDRPGGGGGAAGGAEDLAELDQLLRQRPSGAMPSEIKGLEFSEGLAQGKKQRLSKKLRRKLQMWLWSQTFCPVLYAWNDLGSRFWPRYVKVGSCFSKRSCSVPEGMVCKPSKSVHLTVLRWRCQRRGGQRCGWIPIQYPIISECKCSC
B5: KGF: medium additive from R&D (protein, UniProt P21781 32-194, looked up)
Fibroblast growth factor 7: CNDMTPEQMATNVNCSSPERHTRSYDYMEGGDIRVRRLFCRTQWYLRIDKRGKVKGTQEMKNNYNIMEIRTVAVGIVAIKGVESEFYLAMNKEGKLYAKKECNEDCNFKELILENHYNTYASAKWTHNGGEMFVALNQKGIPVRGKKTKKEQKTAHFLPMAIT

The test system of this experiment is primary cells of intestinal cancer. The experiment in a line: Effect of single additives in Basic Medium on proliferation of primary cells of intestinal cancer (cell count). Also noted: key: +: compared with the Basic Medium, the medium added with the additive(s) has the effect of promoting the proliferation of primary cells of intestinal cancer isolated from intestinal cancer tissue in at least two cases; −: the medium added with the additive(s) has the effect of inhibiting the proliferation of primary cells of intestinal cancer isolated from intestinal cancer tissue in at least one case; ∘: the medium added with the additive(s) has no significant effect on the proliferation of primary cells of intestinal cancer isolated from intestinal cancer tissue in at least two cases. The note with it: additive at the final concentration in Basic Medium; samples OE0042 and OE(E)003; 7-10 days; compared with Basic Medium. In kind it is cell-based, human. As to the method:
First, Basic Medium was prepared. The formulation of Basic Medium is: DMEM/F12 medium (purchased from Corning)+5 μM Y27632 (purchased from MCE)+5% (v/v) fetal bovine serum (purchased from Excell Bio)+100 μg/mL Primocin (purchased from InvivoGen, 0.2% (v/v), the concentration of commercial product is 50 mg/ml).
Different types of additives (see Table 1) were added to the Basic Medium to prepare the culture mediums for primary cells of intestinal cancer containing different components.
The culture mediums of different components as shown in Table 1 were added into a 48-well plate at a volume of 1 mL/well. Primary cells of intestinal cancer isolated from two cases of intestinal cancer tissues (numbered OE0042 and OE(E)003) according to the above step (2) were inoculated into the 48-well culture plate at a cell density of 3×10^4 cells/well, and were cultured at 37° C., under 5% CO2 concentration. After culturing for 7-10 days, when the cells grew to 85%, the culture medium was discarded, and 100 μL/well of 0.05% trypsin (purchased from Gibco) was used to rinse the cells once. After the trypsin was removed, 200 μL of 0.05% trypsin was added to each well. The plate was then placed in a 37° C., 5% CO2 incubator for 10 minutes, and the cells were observed under a microscope (CNOPTEC, BDS400), showing that the cells had completely digested. 300 μL of DMEM/F12 medium containing 10% serum (Excell Bio, FND500) was added to stop the digestion. 20 μL of the resultant was added into a cell counting plate (Countstar, specification: 50 pieces/box), and the total number of cells was counted with a cell counter (Countstar, IC1000). Specifically, Basic Medium without any additives was used as an experimental control, and the experimental results are shown in Table 1.
For B1, the “Level of promoting cell proliferation” value is on record as “−”. Under B2 stands “∘”; under B3, “−”. For B4 the value was “∘”; for B5, “∘”.

Values taken from patent US12590951B2, “Culture medium and culture method for primary cells of intestinal cancer” (PRECEDO PHARMACEUTICALS CO., LTD, priority 2021, dated 2026).
